Residue numbers refer to the chain shown, from its start.
Tests used:
MAEL HMG-box [1] = molecular target: T1, MAEL HMG-box (Mus musculus, UniProt Q8BVN9 2-86); test: EMSA; 10 mM potassium phosphate pH 7.5, 50 mM KCl, 5% glycerol, 1 mM TCEP, 0.1 mg/ml BSA, 2.5 mM MgCl2, ~1 nM substrate, room temperature 30-60 min; native PAGE in ice bath; conditions: protein: recombinant, tags: GST removed by PreScission (pGex6P2), label: 5' 32P
T1 sequence: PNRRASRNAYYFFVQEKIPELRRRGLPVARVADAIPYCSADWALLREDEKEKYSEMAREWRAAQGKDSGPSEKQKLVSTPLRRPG

HMGB1a (HMGB1 box A) [2] = molecular target: T2, HMGB1a (HMGB1 box A) (Mus musculus, UniProt P63158 2-86); test: as above; conditions: protein: recombinant; tags: GST removed by PreScission (pGex6P2); label: 5' 32P; blunt
T2 sequence: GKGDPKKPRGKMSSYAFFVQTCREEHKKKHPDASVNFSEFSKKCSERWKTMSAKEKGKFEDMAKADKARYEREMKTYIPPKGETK

SRY HMG-box [3] = molecular target: T3, SRY HMG-box (Mus musculus (129S4), UniProt Q05738 2-86); test: EMSA; 2.5 mM Mg2+; average of titration and cold competition; 10 mM potassium phosphate pH 7.5, 50 mM KCl, 5% glycerol, 1 mM TCEP, 0.1 mg/ml BSA, 2.5 mM MgCl2, ~1 nM substrate, room temperature 30-60 min; native PAGE in ice bath; conditions: protein: recombinant; tags: GST removed by PreScission (pGex6P2); label: 5' 32P; blunt
T3 sequence (Q05738 2-86): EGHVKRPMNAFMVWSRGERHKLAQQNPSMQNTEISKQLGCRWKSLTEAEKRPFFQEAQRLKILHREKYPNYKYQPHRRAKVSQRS

HMGB1a (HMGB1 box A) [4] = molecular target: T2, HMGB1a (HMGB1 box A); test: EMSA; multiple intermediate complexes; 10 mM potassium phosphate pH 7.5, 50 mM KCl, 5% glycerol, 1 mM TCEP, 0.1 mg/ml BSA, 2.5 mM MgCl2, ~1 nM substrate, room temperature 30-60 min; native PAGE in ice bath; conditions: protein: recombinant; tags: GST removed by PreScission (pGex6P2); label: 5' 32P; four-way junction of 4 strands
MAEL HMG-box R8A = molecular target: T4, MAEL HMG-box R8A (Mus musculus, UniProt Q8BVN9 2-86, R8A); test: EMSA; 10 mM potassium phosphate pH 7.5, 50 mM KCl, 5% glycerol, 1 mM TCEP, 0.1 mg/ml BSA, 2.5 mM MgCl2, ~1 nM substrate, room temperature 30-60 min; native PAGE in ice bath; conditions: protein: recombinant; tags: GST removed by PreScission (pGex6P2); label: 5' 32P; four-way junction of 4 strands
T4 sequence: T1 sequence with R7A

MAEL HMG-box [5] = molecular target: T1, MAEL HMG-box; test: EMSA; 2.5 mM Mg2+; binding incomplete; 10 mM potassium phosphate pH 7.5, 50 mM KCl, 5% glycerol, 1 mM TCEP, 0.1 mg/ml BSA, 2.5 mM MgCl2, ~1 nM substrate, room temperature 30-60 min; native PAGE in ice bath; conditions: protein: recombinant; tags: GST removed by PreScission (pGex6P2); label: 5' 32P; four-way junction of 4 strands
HMGB1a (HMGB1 box A) [6] = molecular target: T2, HMGB1a (HMGB1 box A); test: EMSA; two complexes; 10 mM potassium phosphate pH 7.5, 50 mM KCl, 5% glycerol, 1 mM TCEP, 0.1 mg/ml BSA, 2.5 mM MgCl2, ~1 nM substrate, room temperature 30-60 min; native PAGE in ice bath; conditions: protein: recombinant; tags: GST removed by PreScission (pGex6P2); label: 5' 32P; four-way junction of 4 strands
MAEL HMG-box R23A = molecular target: T5, MAEL HMG-box R23A (Mus musculus, UniProt Q8BVN9 2-86, R23A); test: EMSA; 10 mM potassium phosphate pH 7.5, 50 mM KCl, 5% glycerol, 1 mM TCEP, 0.1 mg/ml BSA, 2.5 mM MgCl2, ~1 nM substrate, room temperature 30-60 min; native PAGE in ice bath; conditions: protein: recombinant; tags: GST removed by PreScission (pGex6P2); label: 5' 32P; four-way junction of 4 strands
T5 sequence: T1 sequence with R22A

MAEL HMG-box R25A = molecular target: T6, MAEL HMG-box R25A (Mus musculus, UniProt Q8BVN9 2-86, R25A); test: as above; conditions: protein: recombinant; tags: GST removed by PreScission (pGex6P2); label: 5' 32P; four-way junction of 4 strands
T6 sequence: T1 sequence with R24A

MAEL HMG-box R31A = molecular target: T7, MAEL HMG-box R31A (Mus musculus, UniProt Q8BVN9 2-86, R31A); test: as above; conditions: protein: recombinant; tags: GST removed by PreScission (pGex6P2); label: 5' 32P; four-way junction of 4 strands
T7 sequence: T1 sequence with R30A

MAEL HMG-box Q16A = molecular target: T8, MAEL HMG-box Q16A (Mus musculus, UniProt Q8BVN9 2-86, Q16A); test: EMSA; same as wild type; 10 mM potassium phosphate pH 7.5, 50 mM KCl, 5% glycerol, 1 mM TCEP, 0.1 mg/ml BSA, 2.5 mM MgCl2, ~1 nM substrate, room temperature 30-60 min; native PAGE in ice bath; conditions: protein: recombinant; tags: GST removed by PreScission (pGex6P2); label: 5' 32P; four-way junction of 4 strands
T8 sequence: T1 sequence with Q15A

SRY HMG-box [7] = molecular target: T3, SRY HMG-box; test: EMSA; five complexes; 10 mM potassium phosphate pH 7.5, 50 mM KCl, 5% glycerol, 1 mM TCEP, 0.1 mg/ml BSA, 2.5 mM MgCl2, ~1 nM substrate, room temperature 30-60 min; native PAGE in ice bath; conditions: protein: recombinant; tags: GST removed by PreScission (pGex6P2); label: 5' 32P; four-way junction of 4 strands
MAEL HMG-box [8] = molecular target: T1, MAEL HMG-box; test: EMSA; complex from 0.5 uM protein; cooperative; fully bound; 10 mM potassium phosphate pH 7.5, 50 mM KCl, 5% glycerol, 1 mM TCEP, 0.1 mg/ml BSA, 2.5 mM MgCl2, ~1 nM substrate, room temperature 30-60 min; native PAGE in ice bath; conditions: protein: recombinant; tags: GST removed by PreScission (pGex6P2); label: 5' 32P; folded
MAEL HMG-box [9] = molecular target: T1, MAEL HMG-box; test: EMSA; no appreciable binding; 10 mM potassium phosphate pH 7.5, 50 mM KCl, 5% glycerol, 1 mM TCEP, 0.1 mg/ml BSA, 2.5 mM MgCl2, ~1 nM substrate, room temperature 30-60 min; native PAGE in ice bath; conditions: protein: recombinant; tags: GST removed by PreScission (pGex6P2); label: 5' 32P; folded

B1: dsDNA-SRY 15 bp (dsDNA)
DNA 1: GCGCAACAATGCCGG
DNA 2: CCGGCATTGTTGCGC
- binding result (MAEL HMG-box [1]; blunt): no binding
- binding result (HMGB1a (HMGB1 box A) [2]): no binding
- Kd (SRY HMG-box [3]): ~12 nM

Binder: GGGAAAGGGUUAGGGUUAGGGUUAGGGAA (ssRNA) [ssRNA]
- binding result (MAEL HMG-box [1]): no binding

Binder: GCGCAACAAUGCCGG (structured_RNA) [RNA hairpin 1]
- binding result (MAEL HMG-box [1]; hairpin): no binding

Binder: GGGACCAGAAGGUCCCG (structured_RNA) [RNA hairpin 2]
- binding result (MAEL HMG-box [1]; hairpin): no binding

B2: RNA 4WJ (structured_RNA)
RNA 1: CCGACAGGACUGUCAACCAGGUAAUAUACCACUUGCGG
RNA 2: CCGCAAGUGGUAUAUUACCUGGUACGCGUUCACGG
RNA 3: CCGUGAACGCGUGGUGCGAAUCGG
RNA 4: CCGAUUCGCACCUGACAGUCCUGUCGG
modifications: 5'-terminal dC and 3'-terminal dG on each strand
- binding result (HMGB1a (HMGB1 box A) [4]): binds
- binding result (MAEL HMG-box R8A): no binding
- Kd (MAEL HMG-box [5]): 638 nM

B3: DNA 4WJ (structured_DNA)
DNA 1: CCGACAGGACTGTCAACCAGGTAATATACCACTTGCGG
DNA 2: CCGCAAGTGGTATATTACCTGGTACGCGTTCACGG
DNA 3: CCGTGAACGCGTGGTGCGAATCGG
DNA 4: CCGATTCGCACCTGACAGTCCTGTCGG
- binding result (HMGB1a (HMGB1 box A) [6]): binds
- binding result (MAEL HMG-box R23A): no binding
- binding result (MAEL HMG-box R8A): no binding
- binding result (MAEL HMG-box R25A): no binding
- binding result (MAEL HMG-box R31A): no binding
- binding result (MAEL HMG-box Q16A): binds
- binding result (SRY HMG-box [7]): binds

B4: L1_Md_F2 277-nt RNA (structured_RNA)
RNA: GGGUUCUGGCUAUUAUAAAUAAGGCUGCUAUGAACAUAGUGGAGCAUGUGUCCUUCUUACCGGUUGGGGCAUCUUCUGGAUAUAUGCCCAGGAGAGGUAUUGCUGGAUCCUCCGGUAGUACUAUGUCCAAUUUUCUGAGGAACCACCAGACUGAUUUCCAGAGUGGUUGUACAGCUUGCAAUCCCACCAGCAAUGAAGGCGUGUUCCUCUUUCUCCACAUCCACGCCAGCAUCUGCUGUCACCUGAAUUUUUGAUCUUAGCCAUUCUGACUGGUGUG
- binding result (MAEL HMG-box [8]): binds

B5: chr2 noPeak 177-nt RNA (structured_RNA)
RNA: GGGGGGGAUGAAAAAUUCAUCUAAUUUAGUACAAUGUAAAUAUAAAGAGUUUGGAAAUUUUUGAAAACUUGAGGUCAUGUUAAAAAAGCAACAACUCUCCUUUUAGAUUGUCCUAUUUGUGUCUUGAAAUUCCUAUGCUGUUCUAAACCCAUUUGGUAUGUAUGCUCCUGCCCAAAC
- binding result (MAEL HMG-box [9]): no binding

Binder: AAAGGGTTAGGGTTAGGGTTAGGGAA (ssDNA) [ssDNA (25-nt)]
- binding result (MAEL HMG-box [1]): no binding

B6: methylated dsDNA 16 bp (dsDNA)
DNA 1: CAGTCGACGTCGTGAC
DNA 2: GTCACGACGTCGACTG
modifications: 5-methyl-dC at position 8 of each strand
- binding result (MAEL HMG-box [1]; blunt): no binding
